The target of test [1] is human polyclonal IgG (Gammanorm) (human). Put plainly: pH 6-3 citrate gradient elution from column, peak 1.
The target is the same in test [2]. Put plainly: pH 6-3 citrate gradient elution from column, peak 2.
Test [3] shares this target. Description: dynamic binding capacity, measured after six 4 h cycles in 1.0 M NaOH; ligand 9.7 mg/ml on agarose beads.
For test [4] the target is unchanged. Description: dynamic binding capacity, measured after 24 h cumulative exposure to 0.5 M NaOH; ligand 9.7 mg/ml on agarose beads.
Test [5] shares this target. Description: dynamic binding capacity, 6 min residence; ligand 9.7 mg/ml on agarose beads.
Test [6] has the same target. The test is described as above. This is another data set of the same source.
For test [7] the target is unchanged. Description: dynamic binding capacity, 6 min residence; ligand […] on agarose beads.
Test [8] has the same target. Put plainly: dynamic binding capacity, 6 min residence; ligand 7.0 mg/ml on agarose beads.
Test [9] shares this target. Put plainly: dynamic binding capacity, measured after 24 h cumulative exposure to 0.5 M NaOH; ligand […] on agarose beads.
For test [10] the target is unchanged. Put plainly: dynamic binding capacity, measured after 24 h cumulative exposure to 0.5 M NaOH; ligand 7.0 mg/ml on agarose beads.
In test [11] the target is IgG1 monoclonal antibody (probe molecule, Example 1). Put plainly: SPR (Biacore), ligand on CM5 chip, IgG1 mAb as probe. For orientation: In SPR one partner is held on a chip, and binding of the other changes the refractive index at the surface.
Test [12] addresses human polyclonal IgG (Gammanorm) (human). Put plainly: dynamic binding capacity, measured after 24 h cumulative exposure to 0.5 M NaOH; ligand 7.2 mg/ml on agarose beads.
Test [13] has the same target. Description: dynamic binding capacity, 6 min residence; ligand 7.2 mg/ml on agarose beads.
The target is the same in test [14]. Description: dynamic binding capacity, 6 min residence; ligand […] on agarose beads. This is another data set of the same source.
For test [15] the target is unchanged. Description: dynamic binding capacity, measured after six 4 h cycles in 1.0 M NaOH; ligand […] on agarose beads.
For test [16] the target is unchanged. Put plainly: dynamic binding capacity; matrix A54, ligand […]. As to conditions: ligand content 6.7 mg/ml.
Test [17] shares this target. Description: dynamic binding capacity; matrix C3, ligand […].
Test [18] shares this target. Description: dynamic binding capacity; matrix C4, ligand 15.2 mg/ml.
The target is the same in test [19]. Description: dynamic binding capacity; matrix A33, ligand […]. As to conditions: ligand content 6.5 mg/ml.
The target is the same in test [20]. Description: dynamic binding capacity; matrix H35, ligand 12.3 mg/ml.
For test [21] the target is unchanged. Put plainly: dynamic binding capacity; matrix A62a, ligand […].
Test [22] has the same target. Put plainly: dynamic binding capacity; matrix H40, ligand […]. Conditions: ligand content 6.9 mg/ml.
The target is the same in test [23]. Description: dynamic binding capacity; matrix A56-2, ligand 19.2 mg/ml.
Test [24] shares this target. Description: dynamic binding capacity; matrix A63b, ligand 10.6 mg/ml.
Test [25] has the same target. Put plainly: pH 6-3 citrate gradient elution from column, peak 2; ligand […].
For test [26] the target is unchanged. Put plainly: dynamic binding capacity; matrix A56, ligand […]. Conditions: ligand content 7.1 mg/ml.
For test [27] the target is unchanged. Put plainly: dynamic binding capacity; matrix A56, ligand 7.9 mg/ml.
Test [28] has the same target. Description: dynamic binding capacity; matrix A56-2, ligand 12.5 mg/ml.
The target is the same in test [29]. Put plainly: dynamic binding capacity; matrix A63b, ligand 16.7 mg/ml.
Test [30] shares this target. Put plainly: dynamic binding capacity; matrix A38, ligand […].
Test [31] shares this target. Put plainly: dynamic binding capacity; matrix A62a, ligand 9.6 mg/ml.
Test [32] has the same target. Put plainly: dynamic binding capacity; matrix H35, ligand 20.3 mg/ml.
Test [33] shares this target. Put plainly: dynamic binding capacity; matrix A56, ligand 19.2 mg/ml.
The target is the same in test [34]. Description: pH 6-3 citrate gradient elution from column, peak 1; ligand […].
For test [35] the target is unchanged. Description: dynamic binding capacity; matrix H31, ligand […].
Test [36] shares this target. Description: dynamic binding capacity; matrix A56, ligand 15.2 mg/ml.
Test [37] shares this target. Put plainly: dynamic binding capacity; matrix A20, ligand 6.4 mg/ml.
The target is the same in test [38]. Put plainly: dynamic binding capacity; matrix A63b, ligand 6.4 mg/ml.
For test [39] the target is unchanged. Put plainly: dynamic binding capacity; matrix C4, ligand 11.2 mg/ml.
Test [40] has the same target. Description: dynamic binding capacity; matrix A20, ligand 21.1 mg/ml.
Test [41] shares this target. Put plainly: dynamic binding capacity; matrix H31, ligand 20.0 mg/ml.
Test [42] shares this target. Put plainly: dynamic binding capacity; matrix S9, ligand 18.4 mg/ml.
The target is the same in test [43]. Description: dynamic binding capacity; matrix A38, ligand 15.8 mg/ml.
The target is the same in test [44]. Description: dynamic binding capacity; matrix A20, ligand […].
Test [45] shares this target. Put plainly: dynamic binding capacity; matrix C3, ligand 15.1 mg/ml.
For test [46] the target is unchanged. Description: dynamic binding capacity; matrix C3, ligand 11.9 mg/ml.
Test [47] shares this target. Put plainly: dynamic binding capacity; matrix H35, ligand […].
The target is the same in test [48]. Put plainly: dynamic binding capacity; matrix A54, ligand 21.1 mg/ml.
Test [49] shares this target. Put plainly: dynamic binding capacity; matrix A38, ligand 11.6 mg/ml.
Test [50] shares this target. Description: dynamic binding capacity; matrix H40, ligand 23.0 mg/ml.
Test [51] has the same target. Put plainly: dynamic binding capacity; matrix A56-2, ligand […].
Test [52] shares this target. Put plainly: dynamic binding capacity; matrix P10, ligand 19.0 mg/ml.
Test [53] has the same target. Put plainly: dynamic binding capacity, 6 min residence; ligand 10.8 mg/ml on agarose beads.
Test [54] shares this target. Description: dynamic binding capacity, measured after 24 h cumulative exposure to 0.5 M NaOH; ligand 10.8 mg/ml on agarose beads.

Usually Kd stands for the equilibrium constant for the complex coming apart. The low end stands for a tighter complex, the high end for a looser complex. The term koff denotes a measure of how fast the partners let go of each other. A high value points to a short-lived complex. By kon is commonly meant a measure of how fast the partners come together. A lower kon goes with slower complex formation.

With “MabSelect SuRe LX (GE Healthcare Life Sciences)”, the Elution pH in test [1] was found to be 4.01 pH; in [2], 3.7 pH.
“Zvar(N11K, H18K, S33K, D37E, A42R, N43A, L44I, K50R, L51Y)4 with an additional N-terminal cysteine (Examples 4 and 5) (designed binder)”: the figures for the Remaining IgG capacity Qb10 after six 4 h cycles in test [3] and in test [4] were 48.1 mg/mL and 52 mg/mL, respectively. Moreover, the Initial IgG capacity Qb10 in test [5] came out at 56.3 mg/mL; in test [6], 62.1 mg/mL.
Regarding “Zvar(Q9A, N11E, N28A, N43A)4 with an additional N-terminal cysteine (Example 4) (designed binder)”, the values for the Initial IgG capacity Qb10 in test [7] and in test [8] were 50 mg/mL and 49.1 mg/mL, respectively. Further, the Remaining IgG capacity Qb10 after six 4 h cycles in test [9] was determined as 46.2 mg/mL; in test [10], 44.1 mg/mL.
In [11], “Zvar(Q9A, N11E, Q40V, A42K, N43A, L44I)1 (designed binder)” displayed a Kd of 1.07 nM, an off-rate (koff) of 0.000437 s⁻¹ and a kon of 410000 M⁻¹ s⁻¹.
As to “Zvar(Q9A, N11E, Q40V, A42K, N43A, L44I)4 with an additional N-terminal cysteine (Examples 4 and 5) (designed binder)”, the Remaining IgG capacity Qb10 after six 4 h cycles was 44.2 mg/mL in test [12], 53.6 mg/mL in [9] and 56 mg/mL in [15]. In addition, the Initial IgG capacity Qb10 was found to be 56.3 mg/mL in test [7], 49 mg/mL in test [13] and 60.3 mg/mL in [14].
As for “Zvar(Q9A, N11E, Q40V, A42K, N43A, L44I)6 (designed binder)”, the Qb10% 2.4 min in test [16] came to 38 mg/mL; in [17], 48 mg/mL; in test [18] it was 57 mg/mL; in test [19], 44 mg/mL; in [20], 31 mg/mL; in test [21], 62 mg/mL. The Qb10% 2.4 min came to 50 mg/mL in [22]; 61 mg/mL in [23]; 49 mg/mL in test [24]; 48 mg/mL in test [26]; 47 mg/mL in [27]; 59 mg/mL in [28]. The Qb10% 2.4 min in test [29] was found to be 53 mg/mL; in [30], 47 mg/mL; in test [31], 56 mg/mL; in test [32], 20 mg/mL; in [33], 55 mg/mL; in test [35] (ligand content 6.5 mg/ml), 37 mg/mL. For the same substance, the Qb10% 2.4 min in test [35] (ligand content 10.4 mg/ml) was determined as 50 mg/mL; in test [36], 48 mg/mL; in test [37], 41 mg/mL; in test [38], 42 mg/mL; in [39], 62 mg/mL; in test [40], 44 mg/mL. The Qb10% 2.4 min in test [41] is 31 mg/mL; in test [42], 56 mg/mL; in [43], 36 mg/mL; in test [44], 38 mg/mL; in test [45], 43 mg/mL; in [46], 51 mg/mL. The Qb10% 2.4 min in [47] was 36 mg/mL; in test [48] it was 38 mg/mL; in test [49] it was 48 mg/mL; in test [50], 41 mg/mL; in test [51] it was 50 mg/mL. Moreover, the Qb10% 6 min in test [16] is 46 mg/mL; in [17], 59 mg/mL; in [18], 82 mg/mL; in test [19] it was 53 mg/mL; in [20] it was 54 mg/mL; in test [21], 84 mg/mL. The Qb10% 6 min in test [22] is 56 mg/mL; in [23], 82 mg/mL; in test [24], 60 mg/mL; in [26], 57 mg/mL; in test [27] it was 55 mg/mL; in [28] it was 72 mg/mL. The Qb10% 6 min is 69 mg/mL in [29]; 57 mg/mL in test [30]; 72 mg/mL in test [31]; 43 mg/mL in test [32]; 80 mg/mL in [33]; 38 mg/mL in test [35] (ligand content 6.5 mg/ml). Also, the Qb10% 6 min in test [35] (ligand content 10.4 mg/ml) was 61 mg/mL; in [36], 76 mg/mL; in test [37], 56 mg/mL; in test [38], 46 mg/mL; in [39], 74 mg/mL; in test [40] it was 43 mg/mL. Also, the Qb10% 6 min worked out at 52 mg/mL in [41]; 75 mg/mL in test [42]; 62 mg/mL in [43]; 64 mg/mL in [44]; 61 mg/mL in [45]; 73 mg/mL in test [46]. For the same substance, the Qb10% 6 min was 49 mg/mL in [47]; 65 mg/mL in [48]; 72 mg/mL in [49]; 65 mg/mL in [50]; 58 mg/mL in test [51]; 76 mg/mL in test [52]. The Elution pH turned out to be 3.81 pH in [25] and 4.24 pH in test [34].
In test [53], “Zvar(Q9A, N11K, H18K, D37E, A42R)4 with an additional N-terminal cysteine (Example 4) (designed binder)” gave an Initial IgG capacity Qb10 of 56.9 mg/mL. In test [54], this substance showed a Remaining IgG capacity Qb10 after six 4 h cycles of 52.5 mg/mL.

The values are drawn from patent US20180044374A1.
